Measurements from publication PMC8167360.

Molecular target: Mac2 (SUD-N, macrodomain II) of SARS-CoV Nsp3, purified (SARS-CoV (strain Frankfurt))
Test: ITC; […] ([…]) […] ([…]) […]; 25°C; VP-ITC; 20 mM Tris–HCl pH 8.5, 150 mM NaCl

B1: middle domain of human Paip1 (Paip1M), purified (domain or fragment)
chain: GSHMASMTGGQQMGRGSTLSEYVQDFLNHLTEQPGSFETEIEQFAETLNGCVTTDDALQELVELIYQQATSIPNFSYMGARLCNYLSHHLTISPQSGNFRQLLLQRCRTEYEVKDQAAKGDEVTRKRFHAFVLFLGELYLNLEIKGTNGQVTRADILQVGLRELLNALFSNPMDDNLICAVKLLKLTGSVLEDAWKEKGKMDMEEIIQRIENVVLDANCSRDVKQMLLKLVELRSS
Question: How did the Kd turn out when B1 was run?
Answer: 15.5 µM

Question: And the dH?
Answer: -6.78 kcal/mol

Question: And the stoichiometry N?
Answer: 0.94
